Measured values published in US20230051701A1 (Bristol-Myers Squibb, published 2023).
Residue numbers refer to the chain shown, from its start. Names may count otherwise. “And” between values parts separate entries of the source, which are not always exact repeats. Equal entries are not always repeated.

How the values were obtained:
[1] = target: T1, human CD73 on cells (Calu6, NCI-H292, SK-MEL-24, human tumor cell lines, human B and T cells) (human, UniProt P21589 27-549); test: flow cytometry, FITC-mAb, B cells of donor D329
T1 construct: Endogenous protein; also called endogenous CD73; cellular CD73
T1 sequence: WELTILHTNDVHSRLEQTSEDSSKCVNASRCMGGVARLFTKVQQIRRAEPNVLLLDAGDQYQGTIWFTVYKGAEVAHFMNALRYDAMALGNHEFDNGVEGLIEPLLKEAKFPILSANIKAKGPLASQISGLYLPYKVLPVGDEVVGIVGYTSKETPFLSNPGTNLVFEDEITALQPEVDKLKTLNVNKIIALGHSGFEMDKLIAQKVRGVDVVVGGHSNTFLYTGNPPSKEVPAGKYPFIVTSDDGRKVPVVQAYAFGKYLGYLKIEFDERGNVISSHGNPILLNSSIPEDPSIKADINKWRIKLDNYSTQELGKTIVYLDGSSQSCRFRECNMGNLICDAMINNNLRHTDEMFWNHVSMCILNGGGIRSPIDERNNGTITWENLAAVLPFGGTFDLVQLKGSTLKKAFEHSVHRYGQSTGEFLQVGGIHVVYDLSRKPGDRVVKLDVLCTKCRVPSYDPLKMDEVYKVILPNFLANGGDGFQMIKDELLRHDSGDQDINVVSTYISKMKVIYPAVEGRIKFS
Experimental: (§1) Binding of CD73.4 antibody to human B and T cells was also determined. Human blood from two donors, D316 and D329, was obtained from Immunsciences, BMS. Peripheral blood mononuclear cells (PBMC) were isolated with Lympholyte-H cell separation gradient media. […] Cells from both donors were pooled for the unstained and FMO (Fluorescence minus one) control samples.

[2] = target: T1, human CD73 on cells (Calu6, NCI-H292, …); test: flow cytometry, FITC-mAb, T cells of donor D329
Experimental: as §1

[3] = target: T1, human CD73 on cells (Calu6, NCI-H292, …); test: cell-based or functional assay
[4] = target: T1, human CD73 on cells (Calu6, NCI-H292, …); test: flow cytometry, FITC-mAb, T cells of donor D316
Experimental: as §1

[5] = target: T1, human CD73 on cells (Calu6, NCI-H292, …); test: flow cytometry, FITC-mAb, B cells of donor D316
Experimental: as §1

[6] = target: T2, N-terminal domain of hCD73 (residues 26-336 of human CD73), His-tagged (human, UniProt P21589 26-336); test: SPR, comparison of all IgG2 molecules
T2 construct: also called N-hCD73; N-hCD73-his
T2 sequence: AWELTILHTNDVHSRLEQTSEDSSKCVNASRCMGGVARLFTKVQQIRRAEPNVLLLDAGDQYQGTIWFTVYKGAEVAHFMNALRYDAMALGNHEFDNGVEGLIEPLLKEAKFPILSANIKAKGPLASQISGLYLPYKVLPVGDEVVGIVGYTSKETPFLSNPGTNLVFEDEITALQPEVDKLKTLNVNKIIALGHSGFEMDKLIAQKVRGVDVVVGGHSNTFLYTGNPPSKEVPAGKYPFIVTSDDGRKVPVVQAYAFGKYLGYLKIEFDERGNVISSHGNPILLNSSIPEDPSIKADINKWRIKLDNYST
Experimental: For these experiments, protein A (Pierce) was immobilized to a density of 3000 — 4000 RU on flow cells 1-4 of a CM5 sensor chip (GE Healthcare) using standard ethyl(dimethylaminopropyl) carbodiimide (EDC)/N-hydroxysuccinimide (NHS) chemistry, with ethanolamine blocking, in a running buffer of 0.01 M HEPES pH 7.4, 0.15 M NaCl, 3 mM EDTA, 0.005% v/v tween 20. […] The running buffer for the kinetic experiments was 10 mM sodium phosphate, 130 mM sodium chloride, 0.05% tween 20, pH 7.1. The surfaces were regenerated after each cycle using two 30 s pulses of 10 mM glycine pH 1.5 at a flow rate of 30 μl/min. Sensogram data was double-referenced and then fitted to a 1:1 Langmuir model using Biacore T100 evaluation software v2.0.4, to determine the association rate constant (ka), the dissociation rate constant (kd), and the equilibrium dissociation constant (KD).

B1: CD73.4-IgG2-C219S (antibody)
heavy: QVQLVESGGGVVQPGRSLRLSCAASGFTFSNYGMHWVRQAPGKGLEWVAVILYDGSNKYYPDSVKGRFTISRDNSKNTLYLQMNSLRAEDTAVYYCARGGSSWYPDSFDIWGQGTMVTVSSASTKGPSVFPLAPCSRSTSESTAALGCLVKDYFPEPVTVSWNSGALTSGVHTFPAVLQSSGLYSLSSVVTVPSSNFGTQTYTCNVDHKPSNTKVDKTVERKSCVECPPCPAPPVAGPSVFLFPPKPKDTLMISRTPEVTCVVVDVSHEDPEVQFNWYVDGVEVHNAKTKPREEQFNSTFRVVSVLTVVHQDWLNGKEYKCKVSNKGLPAPIEKTISKTKGQPREPQVYTLPPSREEMTKNQVSLTCLVKGFYPSDIAVEWESNGQPENNYKTTPPMLDSDGSFFLYSKLTVDKSRWQQGNVFSCSVMHEALHNHYTQKSLSLSPG
light: not shown
notes: also called CD73.4-IgG2CS; CD73.4-IgG2.3
IC50 [1]: 0.0777 nM
IC50 [2]: 0.135 nM
CD73 Inhibition EC50(nM), cAMP assay, Calu6 [3]: 1.56 nM and 1.78 nM
IC50 [4]: 0.18 nM
IC50 [5]: 0.159 nM

B2: CD73.10-IgG2-C219S (antibody)
heavy: B1 heavy with L52W, G55E
light: not shown
notes: also called CD73.10-IgG2CS; CD73.10-IgG2S
fold lower affinity than 11F11 or CD73.4 [6]: ~10 fold

B3: CD73.4-IgG2-C219S-IgG1.1f (antibody)
heavy: B1 heavy with Q274K, F296Y, F300Y, V309L, G327A, A330S, P331S, T339A, M397V
light: not shown
modifications: 94% of the N-terminal glutamine was pyro-Q; 97% of the heavy chains lacked the C-terminal lysine
notes: also called CD73.4-IgG2CS-IgG1.1f
IC50 [1]: 0.145 nM
IC50 [2]: 0.241 nM
CD73 Inhibition EC50(nM), cAMP assay, Calu6 [3]: 1.28 nM
CD73 Inhibition S:B, cAMP assay, Calu6 [3]: 12
IC50 [4]: 0.183 nM
IC50 [5]: 0.165 nM
